The domain aggregation screens of Martell et al. (2025)

Assay: soluble fraction after stress (log2 fold change); higher = more stays soluble; pooled small domains, quantitative proteomics
Settings: stress: 75 degC
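Further: 20 min heating vs room temperature control held 20 min.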

Compared with “HMNYKLESYLKKVDDQLNFIPVSDKADILSELKNTFYERLLNGQTEEEILDEMESPRELALSYMSES”, “HMNYTYTVPEGIRYLRADKALALAFPDHSRTALQRAFDSGLVTLRGVAIKRDQSVTALDTLEFAMPDI” is lower in “soluble fraction (log2)” value: -0.00676 for the first, -0.981 for the second.

First: HMNYVFVLNEHGVRQTSYVVGLHADTLEKTEKLAKQTYPTSTIISGDSEMQSQFISGKAYVNGEFVDP
Second: HMPAFWILAVLAGGRRHGYQIMREAALSSEGLVTLKPTTLYAALERLERDGAIQQDGEEIVDGRVRRYYRI
The “soluble fraction (log2)” value of the first is lower: -0.713 for the first, 0.16 for the second.

Compared with “HMPAKDAEFTAFVRSATPTLTRTAYLLTGDRETASDLVQEAFVRTYLAWRRVRPEEATAYTRRVLVN”, “HMPAPMISIQLNGEPRNVQPGISIAALVREIGLEPAKVAVERNREIVPRSTLGDVLIEAGDQLEIVHFVG” is lower in “soluble fraction (log2)” value: 0.321 for the first, -0.45 for the second.

Going from “HMPAQPEPYNNLARLYSAQGKLDQAASLLRAGLYTDPAYRALFDNLTRIYAEQAARSLSAALD” to “HMPASDPNEKQILRFLTEHQVITRKETQALLDVSQSTAGRVLKAMVDNGQIKQLGGSRNTRYELPM”, the “soluble fraction (log2)” value rises from -1.1 to -0.141.

“HMPASGISSEIIYDGILIEENLRQLKKDKAWLMDQLKKKGISSVSEVFLATLNKGGSLYIDKY” and “HMPASVSAIRKYLGGGSFKGVGPALAKRIVDAFGEYTIETIENDPKQLAKVKGVSEKMALEINTQ” are within 0.2 log units of each other in “soluble fraction (log2)” value: -0.451 for the first, -0.582 for the second.

First: HMPAYYQKEAVLDGRASVFAYERDPSSWYFKQLIPGTKKYRTKKIQGATTLEQAKSQALDIALGLRDEP
Second: HMPDDHFIRGYVTAVLEQVLKVPSIQVEVERGVVILRGDLPGEERQELLDAVSRIHGVARVEYIPL
The “soluble fraction (log2)” value of the first is higher: -0.0971 for the first, -0.686 for the second.

“HMPDLSGEEQQIVDILAQRGNLQINTLVVETDIPVHKMNAILFELEMKGVVRVLAGGMYQLL” and “HMPDPLVEIRSAVHSNYAGMIAMLGADNRVYLGREEHYSYQDGQPGQYDNRDGSLLFVSDQPDIYYFL” are within 0.2 log units of each other in “soluble fraction (log2)” value: -1.02 for the first, -1.17 for the second.

“HMPEAITLRDLKTYSKQAASGYLDDHQLVLVEKEAHSEDVPEGQVIKQKPGAGASVKPGDKVEVTFSLGPE” and “HMPEKKKYGDFVSMTEEEYGKLVSEYGQEAAKRMVEILNNYKGATGKPYKSDYLAILNWVVKRIKEE” are within 0.2 log units of each other in “soluble fraction (log2)” value: 0.0463 for the first, -0.0863 for the second.

Going from “HMPELFLFNPDTASAATFQALGFSARQAGVLIHFREALGGRFGSVEQFSKSYVVDSATLERLRPYMVF” to “HMPEMHIYTKEGKIHITHIDENEEIKIYNPLGQIIYTGSPQDIPVLEGKGLYIIYIGKSAVEVLES”, the “soluble fraction (log2)” value rises from -4.13 to -2.2.

First: HMPENESPEEKHARFRRFAEGLMARLDENESVRDILPELKVWLDDRELDRDDQRLARNLMLTAGKRE
Second: HMPEPLTARETEVLRLLSGGYSNREIAAAMFLAEGTIKNHVSAVLLKLGVRDRTRAVLRGLELGLIQ
The “soluble fraction (log2)” value of the first is higher: 0.0151 for the first, -2.27 for the second.

Going from “HMPEPPRVGETLAALRQDRALSLDELSRQAGVSKSMLSQIERNQANPTVAVVWRLANALGVPMAELLGA” to “HMPGDIRKAAILLMSLPREQAAQVLARLDPKQVEAVTIEIARLGTVTPDEQEQALKEFSQANPA”, the “soluble fraction (log2)” value rises from -0.272 to 0.0238.

Compared with “HMPGIDDAAVEHAERVLAQHIGPMARLLVRRTVPRAANLFDLHRRLGALIPESEPRTAFLSAVVT”, “HMPGLSQAEAQSLLIAYLAQQGRTLELIPLGQSGDVWRFSGRESDGTVVSFFMVSRTDGTISEVPVPP” is lower in “soluble fraction (log2)” value: 0.0954 for the first, -1.06 for the second.

First: HMPGRLSRREVEVIELTARGLPAAEMAVRLGISANTIEFHRRRIMQKLGVANAAEMVRRATELGW
Second: HMPGRVITVMVNGKRVDLPFREEPYIFVDLFRYMDFDVERARGRIQLAINGKKAGYTDIIREGDSIEI
The “soluble fraction (log2)” value of the first is higher: -2.28 for the first, -2.54 for the second.

First: HMPGTAAQARQLKAWLKENGEKPGAALPALQKAQEIYGYVPREVQQLIADALHKPLTEIYGVSTFYSQFNL
Second: HMPGTPADQVAELQTKVGTETKTGDMITQDDVKLLQTALDPLAKMNDRIQAAKILESKGIVTSDGNLRT
The “soluble fraction (log2)” value of the first is lower: -0.566 for the first, 0.0421 for the second.

Compared with “HMPIGENIKRLRIMHGLSQKELAQIAGVSDKAVSTWENGTKEPRMGAVQKITGYFGLKKSNLIEDNGL”, “HMPIMDSDDKYEALGIPQEWIAVVKKAGYQTVEALKAVENPNKLHQELSVMNKKEKLGLAGLTPEMVKAWL” is higher in “soluble fraction (log2)” value: -0.0452 for the first, 0.321 for the second.

“HMPINPKVKQIYDTLKDGGADVGSEKEFNDYFFAKGKDGYNNRKEVFNTLREGGADAGKSYEEFAGWLGL” and “HMPIPIESEISRSPGQSIYAFVQQHYGRSGRSPADMRALVGLILRLNRQIRTPLLIPFGLVVVRPT” are within 0.2 log units of each other in “soluble fraction (log2)” value: 0.445 for the first, 0.335 for the second.

Compared with “HMPIRVGDAFESLAGVFPDEYNKALRKSTKKPVFFVPVKVEAGSGALRQKGKITFIVKDGRIDAIQIAL”, “HMPISQGATVKHNANMRKGASTKYKVTGVLQEGEEVKILSQSNGWYKIQNSDNEKGWTYNTHINASDK” is higher in “soluble fraction (log2)” value: -1.41 for the first, 0.0826 for the second.

“HMPKHFIDFSEGEVVSITDGPFKGFDGAISEIDNQKGKVKVMVSMFGRDTSVELDALQVKKV” and “HMPKITTIHIDPEKISKVIGPGGKTVKKIIEETGAKIDIEDTGKIFIAAVNTEAANKAIDMINGIVA” are within 0.2 log units of each other in “soluble fraction (log2)” value: 0.00647 for the first, 0.101 for the second.

First: HMPKLPIIYVLDGHVNKNALTTSGKNKVWIEHELKKHHINSIKDVLIAMTDTEGKFYYQLYD
Second: HMPKLSNNHMAVWQAIRSRTAKGEPSTRAVIRDDLKAAGMDTSKHFSRWLTKLIDLGMVVKDGENLSIR
The “soluble fraction (log2)” value of the first is lower: -1.77 for the first, -0.395 for the second.

Going from “HMPKMISPAQIKAIGAKTNNIAKASGVEQAQVYQSAVAHLGINNKSTKELTSQEASKVIEYLSTL” to “HMPKPMKATKITLQQEPRIRVDFTYDPLKVQQIKTISGARWSKSLKAWHIPYTKEAFNQLKKLFPNVEIEV”, the “soluble fraction (log2)” value falls from 0.103 to -1.44.

First: HMPKSVRQSFVYSPMYRDVEYLADFLRNNNKDDSSVSASGDKLVYYGTADEIARVKSVLKGVDV
Second: HMPLIPIAIELARHALPSLIGAIAGDKSEKVAKEVVDAALKTTGKTTPDEALHALQADPQLAHEYRLSLL
The “soluble fraction (log2)” value of the first is lower: -0.00252 for the first, 0.982 for the second.

“HMPLKLIDVYLGRHGKKRYDVFKETGLSQQTLASANGKPAAALTGRILQAIGRTVGETPGRVLDEMLMIEQ” and “HMPLLADLPNLLRKVLKQHPGRVVDVDLERGRQGREIYHVRVLQENGQVRGLFVDASTGELVS” are within 0.2 log units of each other in “soluble fraction (log2)” value: -1.02 for the first, -0.938 for the second.

Compared with “HMPLQLPEPMAELARNGETARLAEALKQGLDIDLRDGKGNTLLMIAAYQGRAETVAMLLKAGA”, “HMPLSLESVSEGGRNDTAARIAGYLIAKGLNVDFARFFLQSWNTKNKPPLDDTEIDTIVNSIMKTHERKNQ” is higher in “soluble fraction (log2)” value: -2.29 for the first, -0.858 for the second.

Going from “HMPLTPATADAGRFVKQDRKYIRLLAKRYNFTHGDIKSEIDRVSAVLSSNGIDRVPLFLYKEYLEQYLAG” to “HMPLTRSDVKRIQLWLMAHGYDIGSPDGVFGDKSNRAANAFLSQQGRSLETVTLGKLYDILEAN”, the “soluble fraction (log2)” value falls from -2.04 to -2.58.

First: HMPMINLYQRLNLPPTASRAEIEAALAQYRSELSTAEIRGVQEWLLVNEVRHRYDAKLRQEQPSFFI
Second: HMPMTLGENIARLRTQKDWSQGDLADALGISRQSISKWETDTSIPELEKLIKLSELFGVTLDQLVRGE
The “soluble fraction (log2)” value of the first is lower: -1.08 for the first, -0.406 for the second.
